In patent US20220119490A1 (Genentech, published 2022):

B5: LILRB1 extracellular domain (receptor, human, UniProt Q8NHL6 24-461, looked up)
chain: GHLPKPTLWAEPGSVITQGSPVTLRCQGGQETQEYRLYREKKTALWITRIPQELVKKGQFPIPSITWEHAGRYRCYYGSDTAGRSESSDPLELVVTGAYIKPTLSAQPSPVVNSGGNVILQCDSQVAFDGFSLCKEGEDEHPQCLNSQPHARGSSRAIFSVGPVSPSRRWWYRCYAYDSNSPYEWSLPSDLLELLVLGVSKKPSLSVQPGPIVAPEETLTLQCGSDAGYNRFVLYKDGERDFLQLAGAQPQAGLSQANFTLGPVSRSYGGQYRCYGAHNLSSEWSAPSDPLDILIAGQFYDRVSLSVQPGPTVASGENVTLLCQSQGWMQTFLLTKEGAADDPWRLRSTYQSQKYQAEFPMGPVTSAHAGTYRCYGSQSSKPYLLTHPSDPLELVVSGPSGGPSSPTTGPTSTSGPEDQPLTPTGSDPQSGLGRHLGV
notes: extracellular domain; also called leukocyte immunoglobulin-like receptor subfamily B member 1

Columns and labels:
[1] = biological target: T1, EPHA5 (human, UniProt P54756); assay: SPR, LILRA3 ECD-Fc immobilized, ECD-Fc analytes at 250 nM
T1 construct: extracellular domain; analyte at 250 nM on immobilized LILRA3
Excerpt: (§1) An irrelevant Fc-tagged protein was used as a control. Sensorgram shown is representative of at least 3 independent runs.

[2] = biological target: T2, EPHA3 extracellular domain (human, UniProt P29320 21-541); assay: as above
T2 construct: extracellular domain; ECD construct; also called ephrin type-A receptor 3
T2 sequence (looked up): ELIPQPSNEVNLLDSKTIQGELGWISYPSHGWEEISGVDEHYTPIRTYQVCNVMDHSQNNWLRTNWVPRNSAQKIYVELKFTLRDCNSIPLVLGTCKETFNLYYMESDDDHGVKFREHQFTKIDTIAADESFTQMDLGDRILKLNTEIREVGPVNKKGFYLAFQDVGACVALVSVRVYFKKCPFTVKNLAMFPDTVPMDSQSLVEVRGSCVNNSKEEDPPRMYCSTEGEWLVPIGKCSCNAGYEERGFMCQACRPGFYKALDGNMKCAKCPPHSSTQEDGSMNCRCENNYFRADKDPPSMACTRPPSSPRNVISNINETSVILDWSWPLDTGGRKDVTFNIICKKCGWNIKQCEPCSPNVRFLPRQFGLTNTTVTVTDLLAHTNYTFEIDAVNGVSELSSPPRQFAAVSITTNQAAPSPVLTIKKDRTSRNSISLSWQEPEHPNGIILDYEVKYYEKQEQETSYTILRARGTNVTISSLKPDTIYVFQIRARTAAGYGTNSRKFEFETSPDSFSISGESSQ
Excerpt: as §1

[3] = biological target: T3, LILRB4 expressed on cells (human, UniProt Q8NHJ6 22-448); assay: cell surface interaction assay: ECD tetramer on transfected cells (FIG. 5N)
T3 construct: whole, on cells; C-terminally tagged in the co-IP; also called LILRB4-FLAG

[4] = biological target: T4, LDLR extracellular domain (human, UniProt P01130 22-788); assay: as above
T4 construct: extracellular domain; Soluble query, streptavidin tetramer; also called low-density lipoprotein receptor

[5] = biological target: B5; assay: cell surface interaction assay: soluble multimerized LILRB on transfected cells
[6] = biological target: T5, FLT4 expressed on cells (human, UniProt P35916 25-1363); assay: as above
T5 construct: whole, on cells; also called VEGFR3; vascular endothelial growth factor receptor 3

[7] = biological target: T6, IL6R expressed on cells (human, UniProt P08887 20-468); assay: as above
T6 construct: whole, on cells; C-terminally tagged in the co-IP; also called IL6R-HA
T6 sequence (looked up): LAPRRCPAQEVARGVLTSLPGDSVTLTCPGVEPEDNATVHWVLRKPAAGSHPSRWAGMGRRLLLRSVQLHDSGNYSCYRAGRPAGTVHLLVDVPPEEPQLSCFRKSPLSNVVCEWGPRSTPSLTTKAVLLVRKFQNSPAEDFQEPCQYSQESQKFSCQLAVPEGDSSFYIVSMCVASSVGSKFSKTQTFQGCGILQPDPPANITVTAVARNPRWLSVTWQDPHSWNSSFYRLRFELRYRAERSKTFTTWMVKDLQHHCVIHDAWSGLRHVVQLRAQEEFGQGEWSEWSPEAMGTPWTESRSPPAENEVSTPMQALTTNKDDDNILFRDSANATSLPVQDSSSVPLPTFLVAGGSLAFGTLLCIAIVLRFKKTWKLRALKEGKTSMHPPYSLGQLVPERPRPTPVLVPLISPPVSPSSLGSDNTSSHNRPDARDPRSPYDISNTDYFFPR

[8] = biological target: T7, LDLR expressed on cells (human, UniProt P01130 22-860); assay: as above
T7 construct: whole, on cells

[9] = biological target: T8, CLEC-2 extracellular domain (human, UniProt Q9P126 55-229); assay: SPR, Langmuir model; CLEC-2 ECD immobilized, monomeric Avi-tagged PDPN ectodomain as analyte
T8 construct: extracellular domain; Recombinant ECD in SPR and CAF assays; streptavidin tetramer in organoid cultures; also called CLEC1B; rCLEC-2
Protocol: (§2) SPR was measured using a Proteon XPR36 Instrument (Biorad) or a Biacore 3000 (GE Healthcare). […] Bulk refractive index changes were removed by substrating a reference flow response. For KD calculations, 300-400 resonance units were immobilized, and kinetic data were fit to equilibrium or a Langmuir model to calculate kinetic parameters for CD177 and CLEC-2 binding, respectively. […] All sensorgrams were analyzed with BiaEvaluation 4.1 (Biacore) or Proteon Manager 3.1.0.6 (Proteon) software.

[10] = biological target: T9, CD177 extracellular domain (human, UniProt Q8N6Q3 22-408, limits assumed); assay: SPR, fit to equilibrium; CD177 ECD immobilized, monomeric Avi-tagged PDPN ectodomain as analyte
T9 construct: extracellular domain; ECD-gD-GPI on COS-7 cells in the screen; recombinant ECD in SPR and CAF assays; streptavidin tetramer in organoid cultures; also called NB1; PRV1
T9 sequence (looked up): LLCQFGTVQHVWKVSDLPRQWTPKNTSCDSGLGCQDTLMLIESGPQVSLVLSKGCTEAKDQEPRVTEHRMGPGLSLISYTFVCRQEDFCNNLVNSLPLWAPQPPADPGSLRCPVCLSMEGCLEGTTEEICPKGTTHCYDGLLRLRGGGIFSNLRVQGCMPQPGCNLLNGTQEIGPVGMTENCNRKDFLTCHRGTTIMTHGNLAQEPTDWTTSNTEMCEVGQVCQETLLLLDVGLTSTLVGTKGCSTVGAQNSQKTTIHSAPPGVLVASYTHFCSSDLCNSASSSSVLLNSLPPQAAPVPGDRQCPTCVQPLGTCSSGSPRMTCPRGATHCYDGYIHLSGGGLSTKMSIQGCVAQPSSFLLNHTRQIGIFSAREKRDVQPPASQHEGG
Protocol: as §2

T8 sequence (Q9P126 55-229): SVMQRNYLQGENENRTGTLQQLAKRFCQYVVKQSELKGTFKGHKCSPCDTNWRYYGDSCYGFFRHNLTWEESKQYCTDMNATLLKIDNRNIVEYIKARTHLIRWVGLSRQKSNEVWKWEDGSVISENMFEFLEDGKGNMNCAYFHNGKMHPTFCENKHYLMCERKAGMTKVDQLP
T1 sequence (P54756 25-573): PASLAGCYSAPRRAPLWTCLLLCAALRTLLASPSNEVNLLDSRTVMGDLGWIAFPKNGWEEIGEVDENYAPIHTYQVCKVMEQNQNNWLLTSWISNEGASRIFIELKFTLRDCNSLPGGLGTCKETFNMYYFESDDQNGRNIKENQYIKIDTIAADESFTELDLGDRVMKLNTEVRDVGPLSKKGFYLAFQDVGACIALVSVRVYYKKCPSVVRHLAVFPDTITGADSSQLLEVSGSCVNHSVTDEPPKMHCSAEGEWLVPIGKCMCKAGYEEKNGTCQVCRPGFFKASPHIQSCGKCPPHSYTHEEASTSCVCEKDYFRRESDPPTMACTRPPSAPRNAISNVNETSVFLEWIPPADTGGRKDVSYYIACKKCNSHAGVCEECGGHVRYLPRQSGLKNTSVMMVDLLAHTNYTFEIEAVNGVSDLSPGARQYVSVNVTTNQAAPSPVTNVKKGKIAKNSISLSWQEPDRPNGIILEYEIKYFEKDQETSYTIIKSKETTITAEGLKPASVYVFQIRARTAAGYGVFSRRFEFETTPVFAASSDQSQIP
T5 sequence (P35916 25-1363): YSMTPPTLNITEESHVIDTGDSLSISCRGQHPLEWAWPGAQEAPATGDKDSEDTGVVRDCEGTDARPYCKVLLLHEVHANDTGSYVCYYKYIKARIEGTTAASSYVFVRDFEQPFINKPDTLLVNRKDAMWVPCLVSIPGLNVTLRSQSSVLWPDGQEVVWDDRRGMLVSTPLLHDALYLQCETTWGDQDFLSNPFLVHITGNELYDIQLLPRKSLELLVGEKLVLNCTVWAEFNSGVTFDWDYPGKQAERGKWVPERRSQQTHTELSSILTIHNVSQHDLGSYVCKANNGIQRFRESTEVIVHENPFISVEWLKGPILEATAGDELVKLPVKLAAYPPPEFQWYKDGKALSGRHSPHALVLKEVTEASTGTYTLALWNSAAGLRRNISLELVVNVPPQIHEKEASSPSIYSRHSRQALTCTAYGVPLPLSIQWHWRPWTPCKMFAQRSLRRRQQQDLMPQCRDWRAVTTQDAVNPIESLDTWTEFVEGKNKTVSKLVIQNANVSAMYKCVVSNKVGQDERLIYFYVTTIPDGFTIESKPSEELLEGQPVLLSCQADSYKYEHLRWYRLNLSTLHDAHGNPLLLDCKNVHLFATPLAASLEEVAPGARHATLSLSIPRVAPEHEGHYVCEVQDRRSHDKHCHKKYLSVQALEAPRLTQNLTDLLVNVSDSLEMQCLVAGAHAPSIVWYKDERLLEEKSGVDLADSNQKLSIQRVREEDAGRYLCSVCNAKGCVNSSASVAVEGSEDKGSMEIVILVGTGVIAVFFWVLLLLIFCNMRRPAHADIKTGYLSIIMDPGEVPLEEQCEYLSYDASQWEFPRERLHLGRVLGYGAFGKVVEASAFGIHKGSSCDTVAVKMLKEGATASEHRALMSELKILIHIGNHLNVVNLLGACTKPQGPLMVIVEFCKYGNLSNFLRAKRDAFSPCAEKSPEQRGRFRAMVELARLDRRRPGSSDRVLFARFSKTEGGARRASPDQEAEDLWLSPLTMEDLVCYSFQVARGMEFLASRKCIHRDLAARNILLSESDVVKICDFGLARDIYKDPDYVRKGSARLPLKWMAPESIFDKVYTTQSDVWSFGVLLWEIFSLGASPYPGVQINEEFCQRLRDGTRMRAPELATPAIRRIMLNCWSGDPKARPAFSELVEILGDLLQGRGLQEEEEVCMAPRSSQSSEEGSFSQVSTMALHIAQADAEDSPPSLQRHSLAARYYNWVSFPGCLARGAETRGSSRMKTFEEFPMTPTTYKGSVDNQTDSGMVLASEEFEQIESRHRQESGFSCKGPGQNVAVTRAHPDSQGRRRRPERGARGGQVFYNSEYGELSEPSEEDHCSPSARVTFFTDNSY
T7 sequence (P01130 22-860): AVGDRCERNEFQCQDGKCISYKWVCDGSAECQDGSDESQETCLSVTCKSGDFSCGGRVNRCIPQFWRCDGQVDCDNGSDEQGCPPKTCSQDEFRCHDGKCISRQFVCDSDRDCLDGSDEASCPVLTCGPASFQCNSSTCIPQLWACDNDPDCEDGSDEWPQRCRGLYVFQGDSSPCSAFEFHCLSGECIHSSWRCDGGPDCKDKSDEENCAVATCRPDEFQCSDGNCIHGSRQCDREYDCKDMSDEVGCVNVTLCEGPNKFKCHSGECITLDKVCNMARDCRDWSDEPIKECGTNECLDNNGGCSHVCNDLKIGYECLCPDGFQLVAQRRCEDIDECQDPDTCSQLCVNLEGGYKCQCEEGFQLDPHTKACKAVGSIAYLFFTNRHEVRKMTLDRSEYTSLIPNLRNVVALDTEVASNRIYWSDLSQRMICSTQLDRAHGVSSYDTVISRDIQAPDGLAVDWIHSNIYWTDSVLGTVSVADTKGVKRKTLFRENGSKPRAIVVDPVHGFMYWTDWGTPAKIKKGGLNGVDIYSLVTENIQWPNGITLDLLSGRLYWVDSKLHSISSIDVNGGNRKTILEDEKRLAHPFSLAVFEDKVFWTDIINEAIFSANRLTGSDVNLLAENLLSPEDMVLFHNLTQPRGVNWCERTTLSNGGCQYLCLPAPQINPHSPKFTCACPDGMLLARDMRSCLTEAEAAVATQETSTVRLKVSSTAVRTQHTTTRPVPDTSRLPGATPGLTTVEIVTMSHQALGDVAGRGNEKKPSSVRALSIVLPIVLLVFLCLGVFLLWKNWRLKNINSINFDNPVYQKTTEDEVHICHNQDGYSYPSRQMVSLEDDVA
T4 sequence (P01130 22-788): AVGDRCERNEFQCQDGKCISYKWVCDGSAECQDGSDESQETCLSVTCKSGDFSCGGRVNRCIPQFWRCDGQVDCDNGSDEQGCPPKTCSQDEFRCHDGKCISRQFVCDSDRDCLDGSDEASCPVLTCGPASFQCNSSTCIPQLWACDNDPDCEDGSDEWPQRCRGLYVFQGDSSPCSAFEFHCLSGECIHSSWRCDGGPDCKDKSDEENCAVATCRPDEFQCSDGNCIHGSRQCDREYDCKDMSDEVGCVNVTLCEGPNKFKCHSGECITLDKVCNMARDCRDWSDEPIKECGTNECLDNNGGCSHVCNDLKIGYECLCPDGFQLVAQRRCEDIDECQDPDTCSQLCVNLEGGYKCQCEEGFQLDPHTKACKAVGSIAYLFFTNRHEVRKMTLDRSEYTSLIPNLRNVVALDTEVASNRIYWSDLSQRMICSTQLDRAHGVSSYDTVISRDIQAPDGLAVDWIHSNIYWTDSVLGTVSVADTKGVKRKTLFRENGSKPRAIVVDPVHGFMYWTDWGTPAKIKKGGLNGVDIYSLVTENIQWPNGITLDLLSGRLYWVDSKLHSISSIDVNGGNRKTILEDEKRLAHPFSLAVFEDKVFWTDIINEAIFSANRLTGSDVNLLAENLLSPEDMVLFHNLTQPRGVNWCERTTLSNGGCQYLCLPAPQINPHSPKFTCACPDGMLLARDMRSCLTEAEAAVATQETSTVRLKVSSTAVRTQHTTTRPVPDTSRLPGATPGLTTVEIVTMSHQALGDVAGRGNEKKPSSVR

B1: LILRA3 (ECD-Fc fusion protein) (Fc fusion, human, UniProt Q8N6C8 24-439, looked up)
chain: GPLPKPTLWAEPGSVITQGSPVTLRCQGSLETQEYHLYREKKTALWITRIPQELVKKGQFPILSITWEHAGRYCCIYGSHTAGLSESSDPLELVVTGAYSKPTLSALPSPVVTSGGNVTIQCDSQVAFDGFILCKEGEDEHPQCLNSHSHARGSSRAIFSVGPVSPSRRWSYRCYGYDSRAPYVWSLPSDLLGLLVPGVSKKPSLSVQPGPVVAPGEKLTFQCGSDAGYDRFVLYKEWGRDFLQRPGRQPQAGLSQANFTLGPVSRSYGGQYTCSGAYNLSSEWSAPSDPLDILITGQIRARPFLSVRPGPTVASGENVTLLCQSQGGMHTFLLTKEGAADSPLRLKSKRQSHKYQAEFPMSPVTSAHAGTYRCYGSLSSNPYLLTHPSDPLELVVSGAAETLSPPQNKSDSKAGE
notes: extracellular domain; Immobilized on the SPR chip
binding result [1]: no binding (tested: 250 nM)
binding result [2]: binds

B2: CNTFR extracellular domain (receptor, human, UniProt P26992 23-342, looked up)
chain: QRHSPQEAPHVQYERLGSDVTLPCGTANWDAAVTWRVNGTDLAPDLLNGSQLVLHGLELGHSGLYACFHRDSWHLRHQVLLHVGLPPREPVLSCRSNTYPKGFYCSWHLPTPTYIPNTFNVTVLHGSKIMVCEKDPALKNRCHIRYMHLFSTIKYKVSISVSNALGHNATAITFDEFTIVKPDPPENVVARPVPSNPRRLEVTWQTPSTWPDPESFPLKFFLRYRPLILDQWQHVELSDGTAHTITDAYAGKEYIIQVAAKDNEIGTWSDWSVAAHATPWTEEPRHLTTEAQAAETTTSTTSSLAPPPTTKICDPGELGS
notes: extracellular domain; Soluble query, streptavidin tetramer
binding result [3]: binds

B3: LILRB5 expressed on cells (receptor, human, UniProt O75023 24-590, looked up)
chain: GTLPKPTLWAEPASVIARGKPVTLWCQGPLETEEYRLDKEGLPWARKRQNPLEPGAKAKFHIPSTVYDSAGRYRCYYETPAGWSEPSDPLELVATGFYAEPTLLALPSPVVASGGNVTLQCDTLDGLLTFVLVEEEQKLPRTLYSQKLPKGPSQALFPVGPVTPSCRWRFRCYYYYRKNPQVWSNPSDLLEILVPGVSRKPSLLIPQGSVVARGGSLTLQCRSDVGYDIFVLYKEGEHDLVQGSGQQPQAGLSQANFTLGPVSRSHGGQYRCYGAHNLSPRWSAPSDPLDILIAGLIPDIPALSVQPGPKVASGENVTLLCQSWHQIDTFFLTKEGAAHPPLCLKSKYQSYRHQAEFSMSPVTSAQGGTYRCYSAIRSYPYLLSSPSYPQELVVSGPSGDPSLSPTGSTPTPGPEDQPLTPTGLDPQSGLGRHLGVVTGVSVAFVLLLFLLLFLLLRHRHQSKHRTSAHFYRPAGAAGPEPKDQGLQKRASPVADIQEEILNAAVKDTQPKDGVEMDAPAAASEAPQDVTYAQLHSLTLRREATEPPPSQEREPPAEPSIYAPLAIH
notes: whole, on cells
binding result [4]: binds

B4: EDAR expressed on cells (receptor, human, UniProt Q9UNE0 27-448, looked up)
chain: EYSNCGENEYYNQTTGLCQECPPCGPGEEPYLSCGYGTKDEDYGCVPCPAEKFSKGGYQICRRHKDCEGFFRATVLTPGDMENDAECGPCLPGYYMLENRPRNIYGMVCYSCLLAPPNTKECVGATSGASANFPGTSGSSTLSPFQHAHKELSGQGHLATALIIAMSTIFIMAIAIVLIIMFYILKTKPSAPACCTSHPGKSVEAQVSKDEEKKEAPDNVVMFSEKDEFEKLTATPAKPTKSENDASSENEQLLSRSVDSDEEPAPDKQGSPELCLLSLVHLAREKSATSNKSAGIQSRRKKILDVYANVCGVVEGLSPTELPFDCLEKTSRMLSSTYNSEKAVVKTWRHLAESFGLKRDEIGGMTDGMQLFDRISTAGYSIPELLTKLVQIERLDAVESLCADILEWAGVVPPASQPHAAS
notes: whole, on cells; C-terminally tagged in the co-IP; also called EDAR-HA
binding result [5]: binds

B5
binding result [6]: binds
binding result [7]: binds

B6: LILRB5 extracellular domain (receptor, human, UniProt O75023 24-458, looked up)
chain: GTLPKPTLWAEPASVIARGKPVTLWCQGPLETEEYRLDKEGLPWARKRQNPLEPGAKAKFHIPSTVYDSAGRYRCYYETPAGWSEPSDPLELVATGFYAEPTLLALPSPVVASGGNVTLQCDTLDGLLTFVLVEEEQKLPRTLYSQKLPKGPSQALFPVGPVTPSCRWRFRCYYYYRKNPQVWSNPSDLLEILVPGVSRKPSLLIPQGSVVARGGSLTLQCRSDVGYDIFVLYKEGEHDLVQGSGQQPQAGLSQANFTLGPVSRSHGGQYRCYGAHNLSPRWSAPSDPLDILIAGLIPDIPALSVQPGPKVASGENVTLLCQSWHQIDTFFLTKEGAAHPPLCLKSKYQSYRHQAEFSMSPVTSAQGGTYRCYSAIRSYPYLLSSPSYPQELVVSGPSGDPSLSPTGSTPTPGPEDQPLTPTGLDPQSGLGRHLG
notes: extracellular domain
binding result [8]: binds

B7: podoplanin (PDPN) extracellular domain (receptor, human, UniProt Q86YL7 23-131, looked up)
chain: ASTGQPEDDTETTGLEGGVAMPGAEDDVVTPGTSEDRYKSGLTTLVATSVNSVTGIRIEDLPTSESTVHAQEQSPSATASNVATSHSTEKVDGDTQTTVEKDGLSTVTL
modifications: biotinylated Avi tag in the tetramer
notes: extracellular domain; Streptavidin-APC tetramer in the screens; monomeric Avi-tagged ectodomain for KD; also called gp38; Aggrus
Kd [9]: 210 nM
Kd [10]: 3300 nM
